Among the data in the RNAGym collection of RNA variant scans (doi:10.7554/elife.80360) are self-cleavage values, retold here.

Sequences and labels used below:
B1: Twister Ribozyme (parent)
chain: AACACUGCCAAUGCCGGUCCCAAGCCCGGAUAAAAGUGGAGGGGGCGG

In this data set the parent is B1. The data set can be described thus: self-cleavage, relative activity (ratio to wild type); higher = more cleavage; co-transcriptional.
Turning to U12C G17U, the self-cleavage is 0.291.

Take G13U C14U: the self-cleavage was determined as 0.635.

C5U U31C: the self-cleavage was 0.804.

On to C15G G44A, for which the self-cleavage amounted to 0.0802.

Consider A11U C15A, for which the self-cleavage was found to be 0.62.

For the variant A30G G48U, the self-cleavage was 0.96.

As for C15A A22G, the self-cleavage stood at 0.141.

Regarding U6C U12G, the self-cleavage stood at 0.465.

As to C25A, the self-cleavage was 0.144.

Turning to C5U G47U, the self-cleavage turned out to be 0.691.

Take G36A G47U: the self-cleavage amounted to 0.76.

Turning to G36A G47A, the self-cleavage was found to be 0.557.

On to C15G A30U, for which the self-cleavage was 0.108.

On to A10C G42U, for which the self-cleavage was 0.26.

For C19A A22U, the self-cleavage is 0.11.

With G36A G41A, the self-cleavage came to 0.13.

As for C15U U37C, the self-cleavage was 0.295.

For C15U G41A, the self-cleavage is 0.483.

As to A10C A22G, the self-cleavage stood at 0.256.

U12A U18C: the self-cleavage was found to be 0.623.

Regarding C5G C26G, the self-cleavage amounted to 0.122.

As for C5A C14U, the self-cleavage is 0.668.

Turning to C8U U31C, the self-cleavage came out at 0.713.

For the variant C9G G29U, the self-cleavage was found to be 0.447.

As for G16A A40C, the self-cleavage was found to be 0.122.

As to C5G G38U, the self-cleavage was 0.165.

With G16U A34U, the self-cleavage was 0.577.

With A23G, the self-cleavage turned out to be 0.634.

C27A G45A: the self-cleavage came to 0.334.

For A30U G42A, the self-cleavage came out at 0.464.

On to A4U G13C, for which the self-cleavage amounted to 0.0685.

As for A23G A40G, the self-cleavage was found to be 0.123.

As to A23G G44A, the self-cleavage was 0.604.

Regarding C3G A35U, the self-cleavage came out at 0.488.

Turning to G41C G45C, the self-cleavage was 0.253.

As for A32C G39A, the self-cleavage was 0.586.

Regarding G17U C26A, the self-cleavage was 0.719.

Take A33G G47U: the self-cleavage is 0.927.

On to C3U A11U, for which the self-cleavage amounted to 0.428.

Regarding G17C C46U, the self-cleavage worked out at 0.144.

As to G16A G41A, the self-cleavage turned out to be 0.364.

As to U37A G48C, the self-cleavage is 0.865.

As to A35U G48C, the self-cleavage was 1.07.

A30C C46A: the self-cleavage was 0.612.

A30C G48A: the self-cleavage was 0.576.

A4G U6A: the self-cleavage turned out to be 0.866.

In the case of A34G C46G, the self-cleavage turned out to be 0.815.

Turning to A11C G44C, the self-cleavage was 0.889.

Regarding A2G G43U, the self-cleavage is 0.119.

For C21A A34G, the self-cleavage came to 0.052.

In the case of A23G G47C, the self-cleavage stood at 0.209.

Consider C15A A40C, for which the self-cleavage amounted to 0.136.

For A10C U18G, the self-cleavage was determined as 0.0601.

With C8U A23C, the self-cleavage turned out to be 0.0653.

Take A10U A11U: the self-cleavage was determined as 1.14.

In the case of U37A G39A, the self-cleavage was determined as 0.173.

In the case of C26U A32C, the self-cleavage stood at 0.451.

In the case of C25G C46U, the self-cleavage was 0.286.

Turning to U18A A22U, the self-cleavage is 0.17.

For the variant A2G G7U, the self-cleavage turned out to be 0.0648.

A2G A23G: the self-cleavage turned out to be 0.0805.

As for U31C G41A, the self-cleavage was 0.539.

Take A2C A33G: the self-cleavage was determined as 0.107.

In the case of C9G A33C, the self-cleavage was 0.548.

With C9G G28A, the self-cleavage came out at 0.512.

Turning to C3A U18G, the self-cleavage is 0.0709.

For the variant C8A C27A, the self-cleavage is 0.0935.

On to C9A U31C, for which the self-cleavage is 0.765.

For C21U, the self-cleavage turned out to be 0.129.

Consider C3U G43C, for which the self-cleavage stood at 0.0646.

As to U12G C15U, the self-cleavage was found to be 0.649.

With G38U, the self-cleavage worked out at 0.923.

Turning to A4C G43U, the self-cleavage was determined as 0.103.

Consider C15U C25U, for which the self-cleavage was 0.914.

With A1G C14G, the self-cleavage is 0.168.

Consider C14G C27U, for which the self-cleavage was 0.0942.

Regarding A1U A40G, the self-cleavage worked out at 0.074.

Turning to C26U G48A, the self-cleavage is 0.185.

On to C26U G48U, for which the self-cleavage turned out to be 0.32.

In the case of A11G A23C, the self-cleavage worked out at 0.422.

For C15A G41U, the self-cleavage was determined as 0.177.

A11C C27U: the self-cleavage was found to be 0.352.

With C20A G44A, the self-cleavage is 0.198.

Consider G13C C19U, for which the self-cleavage came out at 0.0706.

As to A11U A40C, the self-cleavage was determined as 0.161.

Take G7U C20U: the self-cleavage came out at 0.0823.

A2G C26G: the self-cleavage stood at 0.035.

On to U18G G24A, for which the self-cleavage is 0.0714.

For U18G G24C, the self-cleavage came out at 0.117.

As for C8U G39U, the self-cleavage was 0.136.

As for A2G A11C, the self-cleavage worked out at 0.206.

With C25U A33U, the self-cleavage came to 0.822.

With C26A G38U, the self-cleavage turned out to be 0.221.

With C8G C9A, the self-cleavage was determined as 0.0971.

Turning to C26A A30U, the self-cleavage turned out to be 0.542.

In the case of G17A A23C, the self-cleavage is 0.0909.

As for C25A G41U, the self-cleavage was 0.0916.

With A23G G29C, the self-cleavage came out at 0.1.

Consider A11C A22U, for which the self-cleavage came out at 0.58.

For the variant U6G G28A, the self-cleavage is 0.138.

As to G29A G47A, the self-cleavage stood at 0.689.

As to C27U G41U, the self-cleavage is 0.345.

Regarding A32U A40U, the self-cleavage is 0.193.

As to G17U U18C, the self-cleavage was 0.126.

Regarding G16U U37A, the self-cleavage is 0.436.

For the variant C15A G28U, the self-cleavage was 0.736.

For the variant C21G A34U, the self-cleavage turned out to be 0.0291.

For A1U A2C, the self-cleavage stood at 0.118.

Turning to G7U C27U, the self-cleavage is 0.079.

As for C19G C25U, the self-cleavage came out at 0.151.

As to G13C G47A, the self-cleavage was 0.154.

With C5U A35G, the self-cleavage stood at 0.435.

On to C8A G42C, for which the self-cleavage amounted to 0.285.

For the variant G7C C25U, the self-cleavage was determined as 0.128.

C5A G42A: the self-cleavage was 0.132.

In the case of G39C A40U, the self-cleavage turned out to be 0.165.

Turning to U31G G44C, the self-cleavage was 0.974.

In the case of U31G G44A, the self-cleavage is 0.825.

With C27U G38A, the self-cleavage is 0.72.

As to U12G G13U, the self-cleavage is 0.836.

On to C5U C19U, for which the self-cleavage was determined as 0.819.

In the case of A10U G24C, the self-cleavage is 0.0965.

Turning to U12C A23U, the self-cleavage amounted to 0.554.

For the variant U18C G44A, the self-cleavage amounted to 0.714.

As to A4C C15A, the self-cleavage amounted to 0.12.

Take G16A G38C: the self-cleavage is 0.761.

For U18A A35U, the self-cleavage was 0.624.

In the case of U18A A35G, the self-cleavage came out at 0.123.

For the variant G36A A40U, the self-cleavage was found to be 0.124.

For the variant C19U G45A, the self-cleavage was 0.915.

Regarding C9G G44U, the self-cleavage is 0.427.

On to A1G C19G, for which the self-cleavage worked out at 0.202.

C14A G42A: the self-cleavage is 0.417.

For G38U G42C, the self-cleavage came to 0.177.

Consider C20A G36A, for which the self-cleavage is 0.0747.

For U6C G28U, the self-cleavage was 0.295.

Turning to G7U A33C, the self-cleavage was determined as 0.0647.

In the case of G13U G24U, the self-cleavage came to 0.0911.

Turning to A22U U31A, the self-cleavage was determined as 0.521.

As for A32G G42A, the self-cleavage came out at 0.319.

Turning to A2U G42U, the self-cleavage is 0.172.

As for A10G A11C, the self-cleavage is 0.801.

Consider A33C U37A, for which the self-cleavage worked out at 0.447.

As for U18G A23U, the self-cleavage came out at 0.0485.

Consider G16U C20A, for which the self-cleavage was 0.109.

C15U C20A: the self-cleavage was 0.176.

For U18C A32C, the self-cleavage came to 0.486.

Turning to G16U G38A, the self-cleavage came out at 0.935.

Take C27G C46A: the self-cleavage worked out at 0.0878.

As to A30C G44U, the self-cleavage came out at 0.793.

Consider A32G G41U, for which the self-cleavage is 0.609.

As to G24U A34G, the self-cleavage amounted to 0.189.

In the case of A1C A33C, the self-cleavage amounted to 0.169.

As to C3A A30C, the self-cleavage came to 0.225.

With G17C G42A, the self-cleavage amounted to 0.0674.

As for C21U U31A, the self-cleavage was found to be 0.105.

For the variant G24C A40C, the self-cleavage came to 0.141.

As to C3U G39C, the self-cleavage was 0.0856.

As to U18C C46A, the self-cleavage turned out to be 0.463.

Take C5G G47U: the self-cleavage worked out at 0.521.

For A33U G42U, the self-cleavage was determined as 0.244.

Take A4G A32C: the self-cleavage turned out to be 0.719.

Turning to A23C C25A, the self-cleavage is 0.066.

Consider G17C U18A, for which the self-cleavage was 0.0862.

Turning to A2U U6G, the self-cleavage was determined as 0.0884.

Turning to A1C G13U, the self-cleavage amounted to 0.207.

Take G16C U31C: the self-cleavage was 0.429.
